Test results published in paper PMC8048981 (2021).
Bridge positions count the residues as written; N and C are the ends.

Target: MDM2 (Homo sapiens, UniProt Q00987)
Assay: fluorescence polarization

Sequence of MDM2 (Q00987 whole entry): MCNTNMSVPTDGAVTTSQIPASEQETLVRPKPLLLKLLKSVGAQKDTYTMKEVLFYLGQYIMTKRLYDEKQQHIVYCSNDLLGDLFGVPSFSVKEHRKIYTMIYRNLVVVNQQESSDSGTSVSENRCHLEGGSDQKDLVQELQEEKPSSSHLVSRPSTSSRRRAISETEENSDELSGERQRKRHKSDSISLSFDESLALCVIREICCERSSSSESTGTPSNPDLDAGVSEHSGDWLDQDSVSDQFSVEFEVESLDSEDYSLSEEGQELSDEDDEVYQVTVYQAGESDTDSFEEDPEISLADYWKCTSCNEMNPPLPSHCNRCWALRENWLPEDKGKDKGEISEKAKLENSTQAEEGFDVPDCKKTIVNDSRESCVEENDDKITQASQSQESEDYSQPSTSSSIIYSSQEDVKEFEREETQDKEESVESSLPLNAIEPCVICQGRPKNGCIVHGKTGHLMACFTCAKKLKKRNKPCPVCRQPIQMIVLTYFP

Binder: {5(6)‑carboxyfluorescein}-QSQQTFCNLWRLLKQN-NH2 (linker 7-14 via para‑phenyl thioalkyne amide (reagent 9a)) [stapled p53-derived peptide 29a']
- Kd: 29 nM

Binder: {5(6)‑carboxyfluorescein}-QSQQTFCNLWRLLKQN-NH2 [linear p53-derived peptide 28']
- Kd: 346 nM
